# Data published in patent US20190322728A1 (PROTHENA BIOSCIENCES, published 2019).
# T1: tau peptide, residues 25-44 of SEQ ID NO: 1 (human)
# T1 construct: Proteolytic fragment (LysC and trypsin digests) of rTau, precipitated by 16B5 and identified by MALDI-TOF/TOF
# T1 peptide: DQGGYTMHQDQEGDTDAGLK
# T2: tau peptide, residues 24-44 of SEQ ID NO: 1 (human)
# T2 construct: Tryptic fragment of rTau, precipitated by 16B5 and identified by MALDI-TOF/TOF
# T2 peptide: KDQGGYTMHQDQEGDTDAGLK
# What was measured:
# [1] = target: recombinant purified hTau-P301L (human) (UniProt P10636); assay: SPR (Biacore T200), antibody held by a capture antibody on a CM5 chip, hTau-P301L as analyte
# Sequence of recombinant purified hTau-P301L (human) (P10636 other isoform, or with tags, fused parts or gaps P301L P301L): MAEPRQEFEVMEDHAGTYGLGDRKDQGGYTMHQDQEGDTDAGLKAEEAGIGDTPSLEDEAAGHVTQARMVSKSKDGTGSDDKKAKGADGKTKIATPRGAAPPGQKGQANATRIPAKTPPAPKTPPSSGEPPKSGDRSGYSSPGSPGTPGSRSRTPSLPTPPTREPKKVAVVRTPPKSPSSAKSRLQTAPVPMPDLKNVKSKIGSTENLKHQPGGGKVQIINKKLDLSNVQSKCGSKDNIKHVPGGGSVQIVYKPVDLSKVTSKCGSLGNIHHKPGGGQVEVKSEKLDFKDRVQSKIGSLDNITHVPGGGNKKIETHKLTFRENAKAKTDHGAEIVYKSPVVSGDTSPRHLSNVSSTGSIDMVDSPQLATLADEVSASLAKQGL
# [2] = target: T3, rTau: human tau with 4 microtubule binding repeats and no N-terminal inserts, containing a P301L mutation (human, UniProt P10636 2-758); assay: Western blot of bacterial lysate, 16B5 at 0.2 ug/mL
# T3 construct: Expressed in E. coli and purified; It is the parent of the deletion mutants; also called full-length Tau; wild-type Tau (WT) of the blots
# T3 sequence (P10636 other isoform, or with tags, fused parts or gaps P301L P301L limits assumed): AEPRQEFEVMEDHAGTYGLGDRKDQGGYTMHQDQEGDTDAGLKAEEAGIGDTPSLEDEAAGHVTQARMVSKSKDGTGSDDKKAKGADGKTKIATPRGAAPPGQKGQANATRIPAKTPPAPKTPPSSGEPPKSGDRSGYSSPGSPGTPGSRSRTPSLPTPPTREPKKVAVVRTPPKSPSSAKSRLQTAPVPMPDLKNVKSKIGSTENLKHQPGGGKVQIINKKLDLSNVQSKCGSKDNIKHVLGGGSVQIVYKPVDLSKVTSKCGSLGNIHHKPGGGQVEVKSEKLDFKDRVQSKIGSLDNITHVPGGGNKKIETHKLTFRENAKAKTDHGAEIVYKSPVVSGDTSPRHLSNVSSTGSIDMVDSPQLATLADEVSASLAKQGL
# [3] = target: T4, tau deletion mutant Δ5-24 (printed A5-24) (human, UniProt P10636-6 1-383); assay: as above
# T4 construct: Deletion mutant of rTau, tested in clarified bacterial lysate; The limits of the pieces are derived from the printed deletion
# T4 sequence (P10636 other isoform, or with tags, fused parts or gaps mutant): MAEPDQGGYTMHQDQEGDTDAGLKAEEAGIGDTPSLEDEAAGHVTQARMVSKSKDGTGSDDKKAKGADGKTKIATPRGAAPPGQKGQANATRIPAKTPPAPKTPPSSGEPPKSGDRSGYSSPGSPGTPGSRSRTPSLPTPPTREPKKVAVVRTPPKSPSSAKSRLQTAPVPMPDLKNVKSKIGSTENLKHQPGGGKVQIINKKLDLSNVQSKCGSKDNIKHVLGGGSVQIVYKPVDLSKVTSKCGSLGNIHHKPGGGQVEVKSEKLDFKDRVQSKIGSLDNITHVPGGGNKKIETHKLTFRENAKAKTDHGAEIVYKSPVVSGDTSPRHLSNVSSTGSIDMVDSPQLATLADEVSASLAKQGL
# [4] = target: T5, tau deletion mutant Δ25-44 (printed A25-44) (human, UniProt P10636 1-758); assay: Western blot of bacterial lysate
# T5 construct: Deletion mutant of rTau, tested in clarified bacterial lysate; The limits of the pieces are derived from the printed deletion
# T5 sequence (P10636 other isoform, or with tags, fused parts or gaps mutant): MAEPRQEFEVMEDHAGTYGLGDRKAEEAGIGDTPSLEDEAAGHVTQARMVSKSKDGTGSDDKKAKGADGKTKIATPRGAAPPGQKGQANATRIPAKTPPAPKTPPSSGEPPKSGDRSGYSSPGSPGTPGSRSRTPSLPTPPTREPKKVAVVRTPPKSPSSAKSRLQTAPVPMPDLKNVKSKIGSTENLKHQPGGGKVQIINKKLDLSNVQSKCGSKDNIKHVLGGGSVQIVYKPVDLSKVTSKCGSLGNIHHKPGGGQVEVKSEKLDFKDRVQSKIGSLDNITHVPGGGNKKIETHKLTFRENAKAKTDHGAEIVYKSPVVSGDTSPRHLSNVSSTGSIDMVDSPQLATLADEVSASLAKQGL
# [5] = target: T6, tau deletion mutant Δ30-39 (printed A30-39) (human, UniProt P10636 1-758); assay: Western blot of bacterial lysate
# T6 construct: Deletion mutant of rTau, tested in clarified bacterial lysate; The limits of the pieces are derived from the printed deletion
# T6 sequence (P10636 other isoform, or with tags, fused parts or gaps mutant): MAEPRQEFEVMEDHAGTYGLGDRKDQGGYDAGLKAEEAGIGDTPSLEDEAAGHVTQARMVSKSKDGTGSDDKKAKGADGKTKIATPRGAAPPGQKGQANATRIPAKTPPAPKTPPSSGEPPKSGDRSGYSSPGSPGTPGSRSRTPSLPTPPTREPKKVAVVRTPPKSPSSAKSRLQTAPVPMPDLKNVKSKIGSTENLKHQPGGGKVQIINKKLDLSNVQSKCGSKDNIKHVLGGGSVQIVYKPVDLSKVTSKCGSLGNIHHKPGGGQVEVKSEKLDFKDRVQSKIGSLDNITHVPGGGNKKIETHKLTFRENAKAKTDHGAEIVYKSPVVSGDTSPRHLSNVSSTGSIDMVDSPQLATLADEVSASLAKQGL
# [6] = target: T7, tau deletion mutant Δ23-32 (printed A23-32) (human, UniProt P10636 1-758); assay: Western blot of bacterial lysate, antibody at 0.2 µg/mL
# T7 construct: Deletion mutant of rTau, tested in clarified bacterial lysate; The limits of the pieces are derived from the printed deletion
# T7 sequence (P10636 other isoform, or with tags, fused parts or gaps mutant): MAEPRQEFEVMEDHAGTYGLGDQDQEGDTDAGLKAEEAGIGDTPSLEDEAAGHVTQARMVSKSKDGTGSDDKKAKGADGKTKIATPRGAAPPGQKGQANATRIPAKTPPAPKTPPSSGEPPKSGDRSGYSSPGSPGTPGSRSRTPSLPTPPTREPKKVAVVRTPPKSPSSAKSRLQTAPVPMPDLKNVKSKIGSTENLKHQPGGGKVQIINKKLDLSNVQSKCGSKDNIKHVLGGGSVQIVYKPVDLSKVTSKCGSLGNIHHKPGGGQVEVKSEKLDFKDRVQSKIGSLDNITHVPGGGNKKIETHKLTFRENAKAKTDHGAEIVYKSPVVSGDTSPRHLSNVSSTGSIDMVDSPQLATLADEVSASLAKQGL
# [7] = target: T1, tau peptide, residues 25-44 of SEQ ID …; assay: precipitation of protease fragments of rTau with 16B5, HPLC, MALDI-TOF/TOF
# [8] = target: T2, tau peptide, residues 24-44 of SEQ ID …; assay: as above
Kd [1] [pM],koff [1] [s⁻¹],kon [1] [M⁻¹ s⁻¹],Binder,further results
3.95,0.000171,4.34e+07,"humanized 16B5, version H2L4 (antibody, V domains shown) VH: EVQLVQSGSELKKPGASVKVSCKASGYPFTYHGMDWVRQAPGQGLEWMGWINTYSGVPTYADDFKGRFVFSLDTSVSTAYLQISSLKAEDTAVYFCARRRDFTMDFWGQGTTVTVSS VL: NIVLTQSPSSLAVSLGERATINCKSSQSLLNSRTRKNYLAWFQQKPGQSPKLLIYWASTRESGVPDRFSGSGSGTDFTLTISSLQAEDVAVYYCKQSYTLRTFGGGTKVEIKR",–
3.15,0.000137,4.36e+07,"humanized 16B5, version H1L4 (antibody, V domains shown) VH: QVQLVQSGSELKKPGASVKVSCKASGYPFTYHGMDWVRQAPGQGLEWMGWINTYSGVPTYADDFKGRFVFSLDTSVSTAYLQISSLKAEDTAVYFCARRRDFTMDFWGQGTTVTVSS VL: NIVLTQSPSSLAVSLGERATINCKSSQSLLNSRTRKNYLAWFQQKPGQSPKLLIYWASTRESGVPDRFSGSGSGTDFTLTISSLQAEDVAVYYCKQSYTLRTFGGGTKVEIKR",–

# The next lines start with the binder.
Binder,Kd [1] [pM],koff [1] [s⁻¹],kon [1] [M⁻¹ s⁻¹],further results
"16B5 monoclonal antibody (mouse) (antibody, V domains shown, Mouse monoclonal antibody; The control 6F10 is called an IgG1 isotype control; also called Murine 16B5; pan antibody 16B5) VH: QIQLVQSGPELKKPGETVKISCKASGYPFTYHGMDWVKQAPWGGLEWMGWINTYSGVPTYADDFKGRFAFSLETSVGTAYLQINNLKNEDTATYFCARRRDFTMDFWGQGTSVTVSS VL: NIVLSQSPSSLAVSPGEKVTMSCKSSQSLLNSRTRKNYLAWFQQKPGQSPKLLIYWASTRESGVPDRFTGSGSGTDFTLTISSVQAEDLAVYYCKQSYTLRTFGGGTNLEIKR",2.32,–,–,binding result [2]: binds; binding result [3]: binds; binding result [4]: no binding (tested: 0.2 µg/mL antibody); binding result [5]: no binding (tested: 0.2 µg/mL antibody); binding result [6]: binds; binding result [7]: binds; binding result [8]: binds
"humanized 16B5, version H1L2 (antibody, V domains shown) VH: QVQLVQSGSELKKPGASVKVSCKASGYPFTYHGMDWVRQAPGQGLEWMGWINTYSGVPTYADDFKGRFVFSLDTSVSTAYLQISSLKAEDTAVYFCARRRDFTMDFWGQGTTVTVSS VL: NIVLTQSPDSLAVSLGERATINCKSSQSLLNSRTRKNYLAWFQQKPGQSPKLLIYWASTRESGVPDRFSGSGSGTDFTLTISSLQAEDVAVYYCKQSYTLRTFGGGTKVEIKR",2.94,0.000131,4.47e+07,–
"humanized 16B5, version H1L1 (antibody, V domains shown) VH: QVQLVQSGSELKKPGASVKVSCKASGYPFTYHGMDWVRQAPGQGLEWMGWINTYSGVPTYADDFKGRFVFSLDTSVSTAYLQISSLKAEDTAVYFCARRRDFTMDFWGQGTTVTVSS VL: NIVLTQSPDSLAVSLGERATINCKSSQSLLNSRTRKNYLAWFQQKPGQPPKLLIYWASTRESGVPDRFSGSGSGTDFTLTISSLQAEDVAVYYCKQSYTLRTFGGGTKVEIKR",–,–,–,dissociation constant relative to the chimeric antibody (fold of chimeric 16B5) [1]: 0.33
"humanized 16B5, version H2L2 (antibody, V domains shown) VH: EVQLVQSGSELKKPGASVKVSCKASGYPFTYHGMDWVRQAPGQGLEWMGWINTYSGVPTYADDFKGRFVFSLDTSVSTAYLQISSLKAEDTAVYFCARRRDFTMDFWGQGTTVTVSS VL: NIVLTQSPDSLAVSLGERATINCKSSQSLLNSRTRKNYLAWFQQKPGQSPKLLIYWASTRESGVPDRFSGSGSGTDFTLTISSLQAEDVAVYYCKQSYTLRTFGGGTKVEIKR",2.86,0.000138,4.85e+07,–
